This is an account of results in paper PMC8307404, “Crystal Structure-Guided Design of Bisubstrate Inhibitors and Photoluminescent Probes for Protein Kinases of the PIM Family” (Molecules, 2021).

Square brackets hold non-standard residues; d marks the D form. Peptide text beside a SMILES is read from it. * marks the point of attachment. X3 = O=C(CCCCCNCc1nc2c(sc3cc(Br)cnc32)c(=O)[nH]1)*

Common to all, as to test: Kinase profiling (radiometric filter-binding)
What all share (assay type): biochemical

For series [1], the target named is T1, Aurora A (Homo sapiens, UniProt O14965).
T1 sequence (O14965 1-403): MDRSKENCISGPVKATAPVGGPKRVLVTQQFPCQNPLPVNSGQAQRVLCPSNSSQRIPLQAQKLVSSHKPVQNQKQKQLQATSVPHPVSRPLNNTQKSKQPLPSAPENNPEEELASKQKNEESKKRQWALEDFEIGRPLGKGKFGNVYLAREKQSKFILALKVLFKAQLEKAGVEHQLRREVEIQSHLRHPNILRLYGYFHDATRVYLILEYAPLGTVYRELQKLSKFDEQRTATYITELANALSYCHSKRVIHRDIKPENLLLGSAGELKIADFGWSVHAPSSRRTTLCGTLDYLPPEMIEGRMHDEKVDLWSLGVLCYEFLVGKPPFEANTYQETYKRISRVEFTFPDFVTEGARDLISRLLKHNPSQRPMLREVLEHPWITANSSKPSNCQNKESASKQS
The conditions noted are these: 1 µM inhibitor, read-out: Residual activity, %. In short, it runs like this: (§1)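 Single-point selectivity screen at 1 µM total inhibitor concentration across a panel of 139 or 140 human PKs, using radioactive filter-binding detection with ATP near or below KM; data are % activity remaining versus untreated control.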

Series [2] deals with T2, DYRK2 (Homo sapiens, UniProt Q92630).
T2 sequence (Q92630 1-601): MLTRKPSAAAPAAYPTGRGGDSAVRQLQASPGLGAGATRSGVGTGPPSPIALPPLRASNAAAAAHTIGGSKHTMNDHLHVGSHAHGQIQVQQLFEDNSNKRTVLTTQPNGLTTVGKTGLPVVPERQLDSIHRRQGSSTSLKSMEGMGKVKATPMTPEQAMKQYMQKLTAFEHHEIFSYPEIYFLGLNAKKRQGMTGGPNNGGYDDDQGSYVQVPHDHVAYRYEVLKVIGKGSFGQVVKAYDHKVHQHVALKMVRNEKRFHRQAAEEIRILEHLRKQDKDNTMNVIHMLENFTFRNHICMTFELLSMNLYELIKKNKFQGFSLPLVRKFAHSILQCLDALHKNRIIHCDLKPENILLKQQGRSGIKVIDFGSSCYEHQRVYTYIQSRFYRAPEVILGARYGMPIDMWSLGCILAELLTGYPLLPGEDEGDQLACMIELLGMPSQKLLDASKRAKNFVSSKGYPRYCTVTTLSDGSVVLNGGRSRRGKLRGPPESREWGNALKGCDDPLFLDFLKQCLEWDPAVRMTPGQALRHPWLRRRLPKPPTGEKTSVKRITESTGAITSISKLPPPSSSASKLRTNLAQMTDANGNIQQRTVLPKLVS
The conditions noted are these: DYRK2, 1 µM inhibitor; read-out: Residual activity, %. In short, it runs like this:
as §1

For series [3], the target named is MKK2 (Homo sapiens, UniProt P36507). To be noted: MKK2, 1 µM inhibitor; read-out: Residual activity, %. In short, it runs like this:
as §1

Series [4] has as its target T3, MST2 (Homo sapiens, UniProt Q13188).
T3 sequence (Q13188 1-491): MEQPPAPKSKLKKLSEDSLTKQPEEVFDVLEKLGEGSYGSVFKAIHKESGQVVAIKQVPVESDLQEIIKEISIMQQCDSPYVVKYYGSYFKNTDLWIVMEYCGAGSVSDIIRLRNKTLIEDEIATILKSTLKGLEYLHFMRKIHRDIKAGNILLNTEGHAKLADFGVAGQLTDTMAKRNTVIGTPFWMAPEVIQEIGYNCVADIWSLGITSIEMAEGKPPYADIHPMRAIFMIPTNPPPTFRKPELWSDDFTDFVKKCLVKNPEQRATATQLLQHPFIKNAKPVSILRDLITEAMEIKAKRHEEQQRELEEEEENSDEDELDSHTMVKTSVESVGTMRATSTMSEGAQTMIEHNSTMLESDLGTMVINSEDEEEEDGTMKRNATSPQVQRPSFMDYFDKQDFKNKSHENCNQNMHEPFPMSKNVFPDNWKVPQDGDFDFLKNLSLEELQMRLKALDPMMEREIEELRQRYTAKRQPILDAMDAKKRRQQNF
The conditions noted are these: MST2, 1 µM inhibitor; read-out: Residual activity, %. In short, it runs like this:
as §1

For series [5], the target named is OSR1 (Homo sapiens, UniProt O95747). The conditions noted are these: OSR1, 1 µM inhibitor; read-out: Residual activity, %. In short, it runs like this: as §1
OSR1, sequence (O95747 whole entry): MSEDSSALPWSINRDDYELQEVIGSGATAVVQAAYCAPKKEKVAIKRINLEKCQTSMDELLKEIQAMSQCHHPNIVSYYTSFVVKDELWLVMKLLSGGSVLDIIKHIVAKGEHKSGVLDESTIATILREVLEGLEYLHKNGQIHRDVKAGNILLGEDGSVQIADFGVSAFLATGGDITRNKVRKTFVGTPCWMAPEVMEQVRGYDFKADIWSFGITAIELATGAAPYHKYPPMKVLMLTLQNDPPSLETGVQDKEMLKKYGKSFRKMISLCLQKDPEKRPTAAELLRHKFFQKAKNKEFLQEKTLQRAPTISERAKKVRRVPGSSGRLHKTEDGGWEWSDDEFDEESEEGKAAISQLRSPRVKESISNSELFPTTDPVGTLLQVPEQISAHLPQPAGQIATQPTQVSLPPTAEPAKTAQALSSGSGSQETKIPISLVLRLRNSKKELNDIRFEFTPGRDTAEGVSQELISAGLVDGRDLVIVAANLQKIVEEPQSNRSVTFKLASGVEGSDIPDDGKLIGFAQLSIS
The target in series [6] is RSK2 (Homo sapiens, UniProt P51812). To be noted: RSK2, 1 µM inhibitor; read-out: Residual activity, %. In short, it runs like this: as §1
RSK2, sequence (P51812 whole entry): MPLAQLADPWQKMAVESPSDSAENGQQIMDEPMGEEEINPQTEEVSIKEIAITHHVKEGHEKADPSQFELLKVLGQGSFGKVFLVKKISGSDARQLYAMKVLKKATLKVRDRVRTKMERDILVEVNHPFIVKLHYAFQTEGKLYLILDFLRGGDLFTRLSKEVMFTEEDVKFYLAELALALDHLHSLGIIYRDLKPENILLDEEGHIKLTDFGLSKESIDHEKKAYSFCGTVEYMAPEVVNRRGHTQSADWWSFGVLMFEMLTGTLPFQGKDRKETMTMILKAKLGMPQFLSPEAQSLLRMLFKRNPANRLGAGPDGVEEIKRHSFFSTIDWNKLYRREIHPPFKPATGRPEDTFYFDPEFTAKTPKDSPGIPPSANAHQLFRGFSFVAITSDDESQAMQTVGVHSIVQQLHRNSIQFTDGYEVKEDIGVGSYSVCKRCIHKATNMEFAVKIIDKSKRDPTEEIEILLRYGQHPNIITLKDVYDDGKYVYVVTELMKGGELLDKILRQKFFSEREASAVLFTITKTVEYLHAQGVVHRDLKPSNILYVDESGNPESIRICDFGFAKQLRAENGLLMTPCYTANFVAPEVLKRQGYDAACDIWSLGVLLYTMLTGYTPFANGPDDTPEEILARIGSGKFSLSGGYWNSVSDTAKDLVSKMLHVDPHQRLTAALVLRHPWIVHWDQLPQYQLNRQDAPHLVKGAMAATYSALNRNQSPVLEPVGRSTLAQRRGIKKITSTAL
Series [7] has as its target TIE2 (Homo sapiens, UniProt Q02763). The conditions noted are these: TIE2, 1 µM inhibitor; read-out: Residual activity, %. In short, it runs like this:
as §1

Series [8] has as its target T4, TLK1 (Homo sapiens, UniProt Q9UKI8).
T4 sequence (Q9UKI8 1-766): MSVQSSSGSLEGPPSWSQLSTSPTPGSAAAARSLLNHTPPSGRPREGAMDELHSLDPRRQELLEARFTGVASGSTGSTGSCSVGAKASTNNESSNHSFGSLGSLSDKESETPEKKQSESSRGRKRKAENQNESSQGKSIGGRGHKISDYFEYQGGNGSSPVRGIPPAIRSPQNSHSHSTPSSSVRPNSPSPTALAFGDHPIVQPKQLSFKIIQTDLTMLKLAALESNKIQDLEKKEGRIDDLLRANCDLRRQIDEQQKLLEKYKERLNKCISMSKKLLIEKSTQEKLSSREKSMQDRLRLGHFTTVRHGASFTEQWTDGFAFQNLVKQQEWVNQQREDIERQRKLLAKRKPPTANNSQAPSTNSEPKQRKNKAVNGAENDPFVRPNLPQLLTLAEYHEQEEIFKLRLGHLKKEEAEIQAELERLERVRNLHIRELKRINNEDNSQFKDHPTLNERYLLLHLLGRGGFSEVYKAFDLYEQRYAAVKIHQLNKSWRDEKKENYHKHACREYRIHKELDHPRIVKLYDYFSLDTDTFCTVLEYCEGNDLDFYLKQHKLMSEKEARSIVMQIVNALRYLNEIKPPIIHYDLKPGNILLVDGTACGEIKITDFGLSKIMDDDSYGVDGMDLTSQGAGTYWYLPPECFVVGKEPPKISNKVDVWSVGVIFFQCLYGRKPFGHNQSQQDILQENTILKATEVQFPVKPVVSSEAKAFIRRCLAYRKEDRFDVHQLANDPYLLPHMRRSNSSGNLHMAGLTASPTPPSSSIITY
To be noted: TLK1, 1 µM inhibitor; read-out: Residual activity, %. In short, it runs like this:
as §1

MKK2, sequence (P36507 whole entry): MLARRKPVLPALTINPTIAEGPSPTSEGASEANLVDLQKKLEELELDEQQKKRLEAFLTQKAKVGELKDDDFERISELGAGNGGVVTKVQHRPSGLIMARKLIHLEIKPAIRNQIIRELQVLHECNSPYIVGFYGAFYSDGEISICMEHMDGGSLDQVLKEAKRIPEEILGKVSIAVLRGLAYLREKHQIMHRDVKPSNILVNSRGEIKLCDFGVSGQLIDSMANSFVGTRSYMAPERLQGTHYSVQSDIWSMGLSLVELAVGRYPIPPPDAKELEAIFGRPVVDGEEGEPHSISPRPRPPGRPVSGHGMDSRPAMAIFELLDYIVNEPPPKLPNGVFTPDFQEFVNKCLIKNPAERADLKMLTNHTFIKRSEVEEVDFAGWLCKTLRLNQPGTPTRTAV
TIE2, sequence (Q02763 23-1124): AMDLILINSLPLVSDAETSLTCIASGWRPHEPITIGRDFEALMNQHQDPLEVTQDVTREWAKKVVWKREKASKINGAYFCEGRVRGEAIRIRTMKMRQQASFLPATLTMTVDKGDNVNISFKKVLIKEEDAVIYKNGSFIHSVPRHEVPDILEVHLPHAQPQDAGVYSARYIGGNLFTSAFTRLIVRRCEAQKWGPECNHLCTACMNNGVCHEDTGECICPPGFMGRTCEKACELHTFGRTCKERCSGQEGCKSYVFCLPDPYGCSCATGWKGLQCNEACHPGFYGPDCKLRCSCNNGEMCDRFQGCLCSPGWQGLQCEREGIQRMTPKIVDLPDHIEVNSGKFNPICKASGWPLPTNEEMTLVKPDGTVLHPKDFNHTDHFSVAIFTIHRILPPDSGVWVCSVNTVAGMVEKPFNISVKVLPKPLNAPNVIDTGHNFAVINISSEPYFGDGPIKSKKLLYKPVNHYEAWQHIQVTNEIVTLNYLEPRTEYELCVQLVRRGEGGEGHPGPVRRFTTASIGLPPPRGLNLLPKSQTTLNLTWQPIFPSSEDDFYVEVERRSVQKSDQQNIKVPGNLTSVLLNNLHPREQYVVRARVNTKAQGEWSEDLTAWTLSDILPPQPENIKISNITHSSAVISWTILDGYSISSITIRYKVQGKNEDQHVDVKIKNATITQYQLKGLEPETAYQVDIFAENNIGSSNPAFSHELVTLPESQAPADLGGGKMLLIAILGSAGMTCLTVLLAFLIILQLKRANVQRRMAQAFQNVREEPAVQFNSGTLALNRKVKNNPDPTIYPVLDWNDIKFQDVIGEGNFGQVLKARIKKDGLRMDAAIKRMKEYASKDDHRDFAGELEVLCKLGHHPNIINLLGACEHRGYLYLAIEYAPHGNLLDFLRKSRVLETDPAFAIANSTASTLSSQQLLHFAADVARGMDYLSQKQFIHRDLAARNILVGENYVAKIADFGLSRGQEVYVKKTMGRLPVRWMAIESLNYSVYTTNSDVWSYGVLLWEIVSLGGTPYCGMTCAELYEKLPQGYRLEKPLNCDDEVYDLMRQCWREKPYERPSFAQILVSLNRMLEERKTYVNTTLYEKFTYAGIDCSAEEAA

Consider `N=C(N)NCCC[C@@H](NC(=O)CCCCCNC(=O)Cn1cnc2c(I)c(I)c(I)c(I)c21)C(=O)N[C@H](CCCNC(=N)N)C(=O)N[C@H](CCCNC(=N)N)C(=O)N[C@H](CCCNC(=N)N)C(=O)N[C@H](CCCNC(=N)N)C(=O)N[C@H](CCCNC(=N)N)C(=O)N[C@H](CCCCN)C(N)=O` [ARC-3125, TIBI-CH2-C(=O)-Ahx-(D-Arg)6-D-Lys-NH2], for which the remaining activity at 1 µM in series [1] amounted to 84 ± 1%; in series [2] it was 54 ± 6%; in series [3], 68 ± 5%; in series [4], 73 ± 1%; in series [5], 73 ± 2%; in series [6], 17 ± 1%. Further, the remaining activity at 1 µM in series [7] came to 104 ± 9%; in series [8] it was 78 ± 1%.
Consider `N=C(N)NCCC[C@@H](NC(=O)CCCCCNCc1nc2c(sc3cc(Br)cnc32)c(=O)[nH]1)C(=O)N[C@H](CCCNC(=N)N)C(=O)N[C@H](CCCNC(=N)N)C(=O)N[C@H](CCCNC(=N)N)C(=O)N[C@H](CCCNC(=N)N)C(=O)N[C@H](CCCNC(=N)N)C(=O)N[C@H](CCCCN)C(N)=O` [ARC-3126, BPTP-Ahx-(D-Arg)6-D-Lys-NH2] (X3-[dR][dR][dR][dR][dR][dR][dK]-NH2), for which the remaining activity at 1 µM in series [1] was found to be 132 ± 8%; in series [2], 88 ± 6%; in series [3], 117 ± 14%; in series [4] it was 106 ± 6%; in series [5], 116 ± 12%; in series [6], 86 ± 15%. Moreover, the remaining activity at 1 µM turned out to be 106% in series [7] and 91 ± 10% in series [8].
Turning to `N=C(N)NCCC[C@@H](NC(=O)CNC(=O)[C@@H](CCCNC(=N)N)NC(=O)[C@@H](CCCNC(=N)N)NC(=O)CCCCCCCNCc1nc2c(sc3cc(Br)cnc32)c(=O)[nH]1)C(=O)N[C@H](CCCCN)C(N)=O` [Compound 1, BPTP-Aoc-(D-Arg)2-Gly-D-Arg-D-Lys-NH2], the remaining activity at 1 µM in series [1] came out at 99 ± 6%; in series [2], 85 ± 17%; in series [3], 102 ± 5%; in series [4], 115 ± 11%; in series [5], 114 ± 7%; in series [6], 109 ± 11%. In addition, the remaining activity at 1 µM in series [7] is 110 ± 6%; in series [8], 118 ± 1%.
As for `N=C(N)NCCC[C@@H](NC(=O)CNC(=O)[C@@H](CCCNC(=N)N)NC(=O)[C@@H](CCCNC(=N)N)NC(=O)CCCCCCCNCc1nc2c(sc3ccc(Br)cc32)c(=O)[nH]1)C(=O)N[C@H](CCCCN)C(N)=O` [Compound 2, BBTP-Aoc-(D-Arg)2-Gly-D-Arg-D-Lys-NH2], the remaining activity at 1 µM in series [1] is 106 ± 3%; in series [2] it was 64 ± 5%; in series [3] it was 108 ± 11%; in series [4], 128 ± 35%; in series [5], 114 ± 4%; in series [6], 92 ± 10%. Besides, the remaining activity at 1 µM in series [7] amounted to 109 ± 9%; in series [8], 122 ± 9%.
Turning to `N=C(N)NCCC[C@@H](NC(=O)CNC(=O)[C@@H](CCCNC(=N)N)NC(=O)[C@@H](CCCNC(=N)N)NC(=O)Cn1cc(CNCc2nc3c(sc4ccc(Br)cc43)c(=O)[nH]2)nn1)C(=O)N[C@H](CCCCN)C(N)=O` [Compound 3, BBTP-Amt-(D-Arg)2-Gly-D-Arg-D-Lys-NH2], the remaining activity at 1 µM in series [1] is 97 ± 3%; in series [2] it was 83 ± 22%; in series [3], 96 ± 7%; in series [4] it was 84 ± 6%; in series [5], 107 ± 14%; in series [6], 106 ± 11%. The values for the remaining activity at 1 µM in series [7] and in series [8] were 103 ± 12% and 109 ± 10%, respectively.
